Test results: the supplement of paper PMC9233669
Fewer inactive variants are shown than the library holds.

Experiments:
biotinyl-Phe-oxazolone = test: self-aminoacylation, catalytic enhancement (BFO) (fold over background); higher = more active; k-Seq, kA / k0A0; sequences stand for … in GGGAAUGGAUCCACAUCUACGAAUUC…UUCACUGCAGACUUGACGAAGCUG
In short: (§1)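 The uncatalyzed rate is the low-activity peak of a bimodal Gaussian fit, and catalytic enhancement is median kA divided by it. The kA values came from pseudo-first-order fits, with 1000 bootstraps, of per-sequence fraction reacted measured by streptavidin capture, triplicate qPCR and Illumina sequencing. Mutagenized RNA pools with a 21-nt variable region (0.43 μM) were reacted with each biotinyl-aminoacyl-oxazolone at 2–1250 μM in 50 μL HEPES/NaCl/KCl/MgCl2/CaCl2 buffer with 5% acetonitrile, pH 6.9–7.0, for 90 minutes at room temperature.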

biotinyl-Met-oxazolone = test: self-aminoacylation, catalytic enhancement (BMO) (fold over background); higher = more active; k-Seq, kA / k0A0; sequences stand for … in GGGAAUGGAUCCACAUCUACGAAUUC…UUCACUGCAGACUUGACGAAGCUG
In short: as §1

biotinyl-Leu-oxazolone = test: self-aminoacylation, catalytic enhancement (BLO) (fold over background); higher = more active; k-Seq, kA / k0A0; sequences stand for … in GGGAAUGGAUCCACAUCUACGAAUUC…UUCACUGCAGACUUGACGAAGCUG
In short: as §1

biotinyl-Val-oxazolone = test: self-aminoacylation, catalytic enhancement (BVO) (fold over background); higher = more active; k-Seq, kA / k0A0; sequences stand for … in GGGAAUGGAUCCACAUCUACGAAUUC…UUCACUGCAGACUUGACGAAGCUG
In short: as §1

biotinyl-Trp-oxazolone = test: self-aminoacylation, catalytic enhancement (BWO) (fold over background); higher = more active; k-Seq, kA / k0A0; sequences stand for … in GGGAAUGGAUCCACAUCUACGAAUUC…UUCACUGCAGACUUGACGAAGCUG
In short: as §1

biotinyl-Ile-oxazolone = test: self-aminoacylation, catalytic enhancement (BIO) (fold over background); higher = more active; k-Seq, kA / k0A0; sequences stand for … in GGGAAUGGAUCCACAUCUACGAAUUC…UUCACUGCAGACUUGACGAAGCUG
In short: as §1

| Sequence | self-aminoacylation (biotinyl-Phe-oxazolone) | self-aminoacylation (biotinyl-Met-oxazolone) | self-aminoacylation (biotinyl-Leu-oxazolone) | self-aminoacylation (biotinyl-Val-oxazolone) | self-aminoacylation (biotinyl-Trp-oxazolone) | self-aminoacylation (biotinyl-Ile-oxazolone) |
| --- | --- | --- | --- | --- | --- | --- |
| AUUCCCCUAGUUCAUCGGGUG [Fam2.2 aminoacylation ribozyme variant] | 56.5 | 7.78 | 10.1 | 6.85 | 10.2 | 6.72 |
| AUUCCCCUCGGUCAUCGGGUG [Fam2.2 aminoacylation ribozyme variant] | 211 | 21.1 | 30.8 | 14 | 22.6 | 14.8 |
| AUUCCCCUGGACAUCGAGUGA [Fam2.1 aminoacylation ribozyme variant] | 35.4 | 6 | 6.77 | 3.45 | 7.13 | 3.41 |
| AUUCCCCUGGUCAUCGAGAGA [Fam2.1 aminoacylation ribozyme variant] | 3.27 | 1.68 | 1.17 | 1.47 | 1.96 | 1.46 |
| AUUCCCCUGGUCAUCGAGUAA [Fam2.1 aminoacylation ribozyme variant] | 1.42 | 1.69 | 1.35 | 1.7 | 1.47 | 1.55 |
| AUUCCCCUGGUCAUCGAGUGA [Fam2.1 aminoacylation ribozyme variant] | 45.7 | 6.93 | 6.99 | 4.37 | 8.4 | 4 |
| AUUCCCCUGGUCAUCGAUUGA [Fam2.1 aminoacylation ribozyme variant] | 1.13 | 1.55 | 1.73 | 1.79 | 2.47 | 1.59 |
| AUUCCCCUGGUCAUUGAGUGA [Fam2.1 aminoacylation ribozyme variant] | 64.3 | 8.79 | 8.32 | 4.5 | 11.7 | 4.73 |
| AUUCCCCUGGUUAUCGAGUGA [Fam2.1 aminoacylation ribozyme variant] | 82.2 | 10.2 | 9.8 | 5.49 | 14.5 | 5.07 |
| AUUCCCCUUGUCAUCGAGUGA [Fam2.1 aminoacylation ribozyme variant] | 70.6 | 11.1 | 11.4 | 7.45 | 14.9 | 6.44 |
| AUUCCCUUAGGUCAUCGGGUG [Fam2.2 aminoacylation ribozyme variant] | 295 | 33.4 | 44.3 | 20.2 | 30.7 | 19.3 |
| AUUCCGCUGGUCAUCGAGUGA [Fam2.1 aminoacylation ribozyme variant] | 45.4 | 6.08 | 6.79 | 3.7 | 8.05 | 3.34 |
| AUUCGCAUAGGUCAUCGGGUG [Fam2.2 aminoacylation ribozyme variant] | 66 | 9.49 | 12.2 | 7.08 | 9.43 | 5.95 |
| AUUCGCCCAGGUCAUCGGGUG [Fam2.2 aminoacylation ribozyme variant] | 42 | 4.75 | 6.46 | 3.96 | 5.2 | 4.14 |
| AUUCGCCUACGUCAUCGGGUG [Fam2.2 aminoacylation ribozyme variant] | 44.1 | 5.54 | 7.11 | 3.86 | 4.12 | 3.15 |
| AUUCGCCUAGCUCAUCGGGUG [Fam2.2 aminoacylation ribozyme variant] | 12.7 | 2.28 | 2.99 | 2.59 | 2.87 | 2.6 |
| AUUCGCCUAGGUCAUCAGGUG [Fam2.2 aminoacylation ribozyme variant] | 7.29 | 1.97 | 2.02 | 1.53 | 2.53 | 1.48 |
| AUUCGCCUAGGUCAUCGAGUG [Fam2.2 aminoacylation ribozyme variant] | 29.3 | 11.7 | 15.9 | 7.39 | 7.17 | 8.77 |
| AUUCGCCUAGGUCAUCGGGUA [Fam2.2 aminoacylation ribozyme variant] | 391 | 46.9 | 68.8 | 23.4 | 35.3 | 25.1 |
| AUUCGCCUAGGUCAUCGUGUG [Fam2.2 aminoacylation ribozyme variant] | 3.31 | 1.45 | 1.35 | 1.05 | 0.823 | 1.04 |
| AUUCGCCUAGGUCAUCUGGUG [Fam2.2 aminoacylation ribozyme variant] | 19.3 | 2.96 | 3.87 | 2.23 | 3.3 | 2.24 |
| AUUCGCCUAGGUCAUGGGGUG [Fam2.2 aminoacylation ribozyme variant] | 31.7 | 5.41 | 6.48 | 4.43 | 5.56 | 3.88 |
| AUUCGCCUAGGUCCUCGGGUG [Fam2.2 aminoacylation ribozyme variant] | 46.8 | 6.35 | 8.24 | 4.56 | 6.48 | 4.84 |
| AUUCUCCCAGGUCAUCGGGUG [Fam2.2 aminoacylation ribozyme variant] | 90 | 10.2 | 12.8 | 6.91 | 9.06 | 6.87 |
| AUUCUCCUAGCUCAUCGGGUG [Fam2.2 aminoacylation ribozyme variant] | 23.2 | 3.24 | 3.79 | 3.75 | 4.24 | 3.32 |
| AUUCUCCUAGGUCAUCGAGUG [Fam2.2 aminoacylation ribozyme variant] | 6.65 | 5.07 | 6.3 | 3.77 | 3.73 | 3.62 |
